Literature values as cited in paper PMC9775385.

Molecular target: Nter-BsRNaseY N-terminal domain (Bacillus subtilis) (UniProt O31774)

For “Nter-BsRNaseY N-terminal domain (from UniProt O31774)”, the Kd is given as 1.3 µM.
